The record followed here is patent publication US20210094999A1.

The target in one assay is insulin receptor-A on CHO-hIR cells (human) (UniProt P06213). Briefly: cell-based or functional assay.
On to Insulin aspart (ligand), for which the % maxERK/% maxAKT was 0.79 and the Elisa hIR pY1158 max (% of human insulin) (% of human insulin) came out at 95.

On to Insulin degludec (ligand), for which the % maxERK/% maxAKT turned out to be 0.97 and the Elisa hIR pY1158 max (% of human insulin) (% of human insulin) worked out at 87.

Insulin glargine (ligand): the % maxERK/% maxAKT was found to be 0.85 and the Elisa hIR pY1158 max (% of human insulin) (% of human insulin) stood at 104.

As for Insulin lispro (ligand), the Elisa hIR pY1158 max (% of human insulin) (% of human insulin) is 104.

“N{Epsilon-B26}-17-carboxyheptadecanoyl-[TyrB5,LysB26],des-(B27-B30)-Insulin (ligand; Lys B26: N-epsilon acylated with C18 diacid, no linker)” had an Elisa hIR pY1158 max (% of human insulin) (% of human insulin) of 2.

In turn, “N{Epsilon-B26}-[2-[2-[2-[[2-[2-[2-[[(4S)-4-carboxy-4-(17-carboxyheptadecanoylamino)butanoyl]amino]ethoxy]ethoxy]acetyl]amino]ethoxy]ethoxy]acetyl]-[TyrB5,LysB26],des-(B27-B30)-Insulin (ligand; Lys B26: N-epsilon acylated with C18 diacid-gGlu-2xOEG)” came in with a % maxERK/% maxAKT of 0.41 and an Elisa hIR pY1158 max (% of human insulin) (% of human insulin) of 24.

“N{Epsilon-B26}-[2-[2-[2-[[(4S)-4-carboxy-4-(17-carboxyheptadecanoylamino)butanoyl]amino]ethoxy]ethoxy]acetyl]-[TyrB5,LysB26],des-(B27-B30)-Insulin (ligand; Lys B26: N-epsilon acylated with C18 diacid-gGlu-OEG)”: the % maxERK/% maxAKT was 0.27 and the Elisa hIR pY1158 max (% of human insulin) (% of human insulin) was found to be 20.

Substance “N{Epsilon-B26}-[(4S)-4-carboxy-4-(17-carboxyheptadecanoylamino)butanoyl]-[TyrB5,LysB26],des-(B27-B30)-Insulin (ligand; Lys B26: N-epsilon acylated with C18 diacid-gGlu)” had a % maxERK/% maxAKT of 0.33 and an Elisa hIR pY1158 max (% of human insulin) (% of human insulin) of 6.

The substance “N{Epsilon-B28}-15-carboxypentadecanoyl-[TyrB5,GlyB26,LysB28],des-(B29-B30)-Insulin (ligand; Lys B28: N-epsilon acylated with C16 diacid, no linker)” gave a % maxERK/% maxAKT of 0.27 and an Elisa hIR pY1158 max (% of human insulin) (% of human insulin) of 10.

“N{Epsilon-B28}-15-carboxypentadecanoyl-[TyrB5,LysB28],des-(B29-B30)-Insulin (ligand; Lys B28: N-epsilon acylated with C16 diacid, no linker)” displayed a % maxERK/% maxAKT of 0.38 and an Elisa hIR pY1158 max (% of human insulin) (% of human insulin) of 32.

Consider “N{Epsilon-B28}-17-carboxyheptadecanoyl-[PheB5,LysB28],des-(B29-B30)-Insulin (ligand; Lys B28: N-epsilon acylated with C18 diacid, no linker)”, for which the % maxERK/% maxAKT amounted to 0.31 and the Elisa hIR pY1158 max (% of human insulin) (% of human insulin) stood at 10.

Regarding “N{Epsilon-B28}-17-carboxyheptadecanoyl-[TyrB5,GlyB26,LysB28],des-(B29-B30)-Insulin (ligand; Lys B28: N-epsilon acylated with C18 diacid, no linker)”, the % maxERK/% maxAKT is 0.07 and the Elisa hIR pY1158 max (% of human insulin) (% of human insulin) was found to be 3.

Take “N{Epsilon-B28}-17-carboxyheptadecanoyl-[TyrB5,LysB28],des-(B29-B30)-Insulin (ligand; Lys B28: N-epsilon acylated with C18 diacid, no linker)”: the % maxERK/% maxAKT worked out at 0.35 and the Elisa hIR pY1158 max (% of human insulin) (% of human insulin) came to 17.

For the substance “N{Epsilon-B28}-[2-[2-[2-(17-carboxyheptadecanoylamino)ethoxy]ethoxy]acetyl]-[TyrB5,LysB28],des-(B29-B30)-Insulin (ligand; Lys B28: N-epsilon acylated with C18 diacid-OEG)”, the % maxERK/% maxAKT is 0.48 and the Elisa hIR pY1158 max (% of human insulin) (% of human insulin) is 31.

“N{Epsilon-B28}-[2-[2-[2-[[(4S)-4-carboxy-4-(17-carboxyheptadecanoylamino)butanoyl]amino]ethoxy]ethoxy]acetyl]-[TyrB5,AlaB26,LysB28],des-(B29-B30)-Insulin (ligand; Lys B28: N-epsilon acylated with C18 diacid-gGlu-OEG)” showed a % maxERK/% maxAKT of 0.2 and an Elisa hIR pY1158 max (% of human insulin) (% of human insulin) of 6.

Turning to “N{Epsilon-B28}-[2-[2-[2-[[(4S)-4-carboxy-4-(17-carboxyheptadecanoylamino)butanoyl]amino]ethoxy]ethoxy]acetyl]-[TyrB5,GlyB26,LysB28],des-(B29-B30)-Insulin (ligand; Lys B28: N-epsilon acylated with C18 diacid-gGlu-OEG)”, the % maxERK/% maxAKT was found to be 0.34 and the Elisa hIR pY1158 max (% of human insulin) (% of human insulin) worked out at 7.

For the substance “N{Epsilon-B28}-[2-[2-[2-[[(4S)-4-carboxy-4-(17-carboxyheptadecanoylamino)butanoyl]amino]ethoxy]ethoxy]acetyl]-[TyrB5,LysB28],des-(B29-B30)-Insulin (ligand; Lys B28: N-epsilon acylated with C18 diacid-gGlu-OEG)”, the % maxERK/% maxAKT stood at 0.61 and the Elisa hIR pY1158 max (% of human insulin) (% of human insulin) came to 39.

In the case of “N{Epsilon-B28}-[(4R)-4-[(3R,10S,13R,17R)-3-hydroxy-10,13-dimethyl-2,3,4,5,6,7,8,9,11,12,14,15,16,17-tetradecahydro-1H-cyclopenta[a]phenanthren-17-yl]pentanoyl]-[TyrB5,LysB28],des-(B29-B30)-Insulin (ligand; Lys B28: N-epsilon acylated with lithocholic acid, no linker)”, the % maxERK/% maxAKT was determined as 0.29 and the Elisa hIR pY1158 max (% of human insulin) (% of human insulin) came to 14.

Consider “N{Epsilon-B28}-[(4S)-4-carboxy-4-(15-carboxypentadecanoylamino)butanoyl]-[TyrB5,LysB28],des-(B29-B30)-Insulin (ligand; Lys B28: N-epsilon acylated with C16 diacid-gGlu)”, for which the % maxERK/% maxAKT was 0.47 and the Elisa hIR pY1158 max (% of human insulin) (% of human insulin) was 43.

In turn, “N{Epsilon-B28}-[(4S)-4-carboxy-4-(17-carboxyheptadecanoylamino)butanoyl]-[TyrB5,LysB28],des-(B29-B30)-Insulin (ligand; Lys B28: N-epsilon acylated with C18 diacid-gGlu)” returned a % maxERK/% maxAKT of 0.37 and an Elisa hIR pY1158 max (% of human insulin) (% of human insulin) of 19.

Substance “N{Epsilon-B28}-[(4S)-4-carboxy-4-[[(4R)-4-[(3R,10S,13R,17R)-3-hydroxy-10,13-dimethyl-2,3,4,5,6,7,8,9,11,12,14,15,16,17-tetradecahydro-1H-cyclopenta[a]phenanthren-17-yl]pentanoyl]amino]butanoyl]-[TyrB5,LysB28],des-(B29-B30)-Insulin (ligand; Lys B28: N-epsilon acylated with lithocholic acid-gGlu)” came in with a % maxERK/% maxAKT of 0.32 and an Elisa hIR pY1158 max (% of human insulin) (% of human insulin) of 25.

“N{Epsilon-B28}-[(4S)-4-carboxy-4-[[(4S)-4-carboxy-4-(17-carboxyheptadecanoylamino)butanoyl]amino]butanoyl]-[TyrB5,LysB28],des-(B29-B30)-Insulin (ligand; Lys B28: N-epsilon acylated with C18 diacid-2xgGlu)” had a % maxERK/% maxAKT of 0.45 and an Elisa hIR pY1158 max (% of human insulin) (% of human insulin) of 36.

Regarding “N{Epsilon-B29}-[(4S)-4-carboxy-4-(15-carboxypentadecanoylamino)butanoyl]-[TyrB5,AlaB26],des-ThrB30-Insulin (ligand; Lys B29: N-epsilon acylated with C16 diacid-gGlu)”, the % maxERK/% maxAKT amounted to 0.3 and the Elisa hIR pY1158 max (% of human insulin) (% of human insulin) was 13.

Substance “N{Epsilon-B29}-[(4S)-4-carboxy-4-(15-carboxypentadecanoylamino)butanoyl]-[TyrB5,GlyB26],des-ThrB30-Insulin (ligand; Lys B29: N-epsilon acylated with C16 diacid-gGlu)” returned a % maxERK/% maxAKT of 0.19 and an Elisa hIR pY1158 max (% of human insulin) (% of human insulin) of 8.

Substance “N{Epsilon-B29}-[(4S)-4-carboxy-4-(15-carboxypentadecanoylamino)butanoyl]-[TyrB5],des-ThrB30-Insulin (ligand; Lys B29: N-epsilon acylated with C16 diacid-gGlu)” yielded a % maxERK/% maxAKT of 0.84 and an Elisa hIR pY1158 max (% of human insulin) (% of human insulin) of 58.

Regarding “N{Epsilon-B29}-[(4S)-4-carboxy-4-(17-carboxyheptadecanoylamino)butanoyl]-[TyrB5,AlaB26],des-ThrB30-Insulin (ligand; Lys B29: N-epsilon acylated with C18 diacid-gGlu)”, the % maxERK/% maxAKT worked out at 0.29 and the Elisa hIR pY1158 max (% of human insulin) (% of human insulin) is 6.

“N{Epsilon-B29}-[(4S)-4-carboxy-4-(17-carboxyheptadecanoylamino)butanoyl]-[TyrB5,GlyB26],des-ThrB30-Insulin (ligand; Lys B29: N-epsilon acylated with C18 diacid-gGlu)”: the % maxERK/% maxAKT came to 0.36 and the Elisa hIR pY1158 max (% of human insulin) (% of human insulin) turned out to be 7.

The substance “N{Epsilon-B29}-tetradecanoyl-[TyrB5],des-ThrB30-Insulin (ligand; Lys B29: N-epsilon acylated with C14 (tetradecanoyl), no linker)” had a % maxERK/% maxAKT of 0.66 and an Elisa hIR pY1158 max (% of human insulin) (% of human insulin) of 40.

Take “[TyrB5,AlaB26],des-ThrB30-Insulin (ligand)”: the % maxERK/% maxAKT is 0.85 and the Elisa hIR pY1158 max (% of human insulin) (% of human insulin) worked out at 132.

In turn, “[TyrB5,GlyB26],des-ThrB30-Insulin (ligand)” had a % maxERK/% maxAKT of 0.82 and an Elisa hIR pY1158 max (% of human insulin) (% of human insulin) of 93.

“[TyrB5,LysB28],des-(B29-B30)-Insulin (ligand)”: the % maxERK/% maxAKT was 0.84 and the Elisa hIR pY1158 max (% of human insulin) (% of human insulin) was determined as 93.

The next assay deals with solubilised human insulin receptor isoform A (IR-A) (human) (UniProt P06213). Briefly: competition SPA on solubilised human IR-A against [125I-TyrA14]-human insulin; affinity relative to human insulin.
As to Insulin degludec (ligand), the hIR binding IC50 (% of human insulin) (% of human insulin) was found to be 20.

On to Insulin glargine (ligand), for which the hIR binding IC50 (% of human insulin) (% of human insulin) is 79.
